These are literature values, as cited in PMC9280966 (ACS Omega, 2022).

For orientation: Kd means the constant that tells how readily two partners part at equilibrium.

The data set addresses RHEB (Homo sapiens, UniProt Q15382). The settings on record: read-out: KD with RHEB (BLI); BLI analysis, earlier study; ref [12].

Chain of RHEB (Q15382 whole entry): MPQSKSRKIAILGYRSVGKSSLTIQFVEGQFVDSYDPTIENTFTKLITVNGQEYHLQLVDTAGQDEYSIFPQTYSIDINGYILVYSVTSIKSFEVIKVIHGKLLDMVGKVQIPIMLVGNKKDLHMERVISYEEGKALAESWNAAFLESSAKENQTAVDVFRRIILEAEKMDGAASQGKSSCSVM

As for “mTOR^ΔN: N-heat domain of mTOR (aa 60–167), 6xHis tagged, ∼13 kDa”, the equilibrium dissociation constant (Kd) was around 6.5 µM.
